From PMC5803408 (Structure (London, England : 1993), 2018)

T1: human UHRF1 TTD domain (residues 126-284) N194A (human, UniProt Q96T88 126-284, N194A)
T1 sequence (looked up): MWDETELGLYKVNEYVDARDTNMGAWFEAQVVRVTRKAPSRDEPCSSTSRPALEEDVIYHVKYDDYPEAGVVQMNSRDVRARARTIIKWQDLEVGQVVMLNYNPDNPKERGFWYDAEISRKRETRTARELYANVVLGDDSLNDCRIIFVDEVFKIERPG

T2: human UHRF1 TTD-PHD dual domains (residues 126-366) (human, UniProt Q96T88 126-366)
T2 sequence (looked up): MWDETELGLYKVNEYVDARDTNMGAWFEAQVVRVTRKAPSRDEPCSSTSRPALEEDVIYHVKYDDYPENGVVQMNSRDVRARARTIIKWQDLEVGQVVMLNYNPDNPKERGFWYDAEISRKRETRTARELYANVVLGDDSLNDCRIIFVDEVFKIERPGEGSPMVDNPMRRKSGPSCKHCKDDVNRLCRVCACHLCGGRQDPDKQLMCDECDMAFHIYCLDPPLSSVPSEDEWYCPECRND

T3: human UHRF1 TTD domain (residues 126-284) N147A (human, UniProt Q96T88 126-284, N147A)
T3 sequence (looked up): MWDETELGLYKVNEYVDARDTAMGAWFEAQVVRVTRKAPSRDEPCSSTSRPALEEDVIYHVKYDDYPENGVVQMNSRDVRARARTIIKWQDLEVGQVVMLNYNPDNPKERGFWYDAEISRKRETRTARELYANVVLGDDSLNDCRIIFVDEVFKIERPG

T4: human UHRF1 TTD domain (residues 126-284) D142A/E153A (human, UniProt Q96T88 126-284, D142A | E153A)
T4 sequence (looked up): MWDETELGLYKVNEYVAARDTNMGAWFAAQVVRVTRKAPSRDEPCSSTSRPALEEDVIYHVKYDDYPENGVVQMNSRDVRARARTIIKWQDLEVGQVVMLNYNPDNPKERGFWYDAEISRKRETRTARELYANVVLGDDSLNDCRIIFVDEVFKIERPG


Tests used:
chromatin = details: previous study; ref Zhang et al., 2015; cited from earlier work
[1] = molecular target: T1, human UHRF1 TTD domain (residues …); assay: ITC
[2] = molecular target: T2, human UHRF1 TTD-PHD dual domains …; assay: ITC
[3] = molecular target: T3, human UHRF1 TTD domain (residues …); assay: ITC
[4] = molecular target: T4, human UHRF1 TTD domain (residues …); assay: cell-based or functional assay

| binding result [1] | fold weaker binding than to TTD [2] [fold] | binding result [3] | FRET ratio of the CFP-UHRF1 (D142A/E153A)-YFP mutant, intramolecular [4] | Molecule | chromatin binding of UHRF1 with K644E/K646E mutations in PBR (chromatin) |
| --- | --- | --- | --- | --- | --- |
|  |  |  |  | K644E/K646E: UHRF1 with K644E/K646E mutations in the PBR sequence (previous study) (protein, UniProt Q96T88 1-793, looked up, variant K644E K646E) E3 ubiquitin-protein ligase …: MWIQVRTMDGRQTHTVDSLSRLTKVEELRRKIQELFHVEPGLQRLFYRGKQMEDGHTLFDYEVRLNDTIQLLVRQSLVLPHSTKERDSELSDTDSGCCLGQSESDKSSTHGEAAAETDSRPADEDMWDETELGLYKVNEYVDARDTNMGAWFEAQVVRVTRKAPSRDEPCSSTSRPALEEDVIYHVKYDDYPENGVVQMNSRDVRARARTIIKWQDLEVGQVVMLNYNPDNPKERGFWYDAEISRKRETRTARELYANVVLGDDSLNDCRIIFVDEVFKIERPGEGSPMVDNPMRRKSGPSCKHCKDDVNRLCRVCACHLCGGRQDPDKQLMCDECDMAFHIYCLDPPLSSVPSEDEWYCPECRNDASEVVLAGERLRESKKKAKMASATSSSQRDWGKGMACVGRTKECTIVPSNHYGPIPGIPVGTMWRFRVQVSESGVHRPHVAGIHGRSNDGAYSLVLAGGYEDDVDHGNFFTYTGSGGRDLSGNKRTAEQSCDQKLTNTNRALALNCFAPINDQEGAEAKDWRSGKPVRVVRNVKGGKNSKYAPAEGNRYDGIYKVVKYWPEKGKSGFLVWRYLLRRDDDEPGPWTKEGKDRIKKLGLTMQYPEGYLEALANREREKENSKREEEEQQEGGFASPRTGEGEWKRKSAGGGPSRAGSPRRTSKKTKVEPYSLTAQQSSLIREDKSNAKLWNEVLASLKDRPASGSPFQLFLSKVEETFQCICCQELVFRPITTVCQHNVCKDCLDRSFRAQVFSCPACRYDLGRSYAMQVNQPLQTVLNQLFPGYGNGR | reduced chromatin binding of UHRF1 |
| binds | ~3 | binds | 0.52 | EGGFASPRTGKGKWKRKSAGGGPSRAGSPRRT (peptide, UniProt Q96T88 634-665, looked up) [human UHRF1 PBR peptide (residues 634-665)] |  |
